The labels stand for the following.
B1: Azoarcus group I ribozyme (parent)
chain: GUGCCUUGCGCCGGGAAACCACGCAAGGGAUGGUGUCAAAUUCGGCGAAACCUAAGCGCCCGCCCGGGCGUAUGGCAACGCCGAGCCAAGCUUCGGCGCCUGCGCCGAUGAAGGUGUAGAGACUAGACGGCACCCACCUAAGGCAAACGCUAUGGUGAAGGCAUAGUCCAGGGAGUGGCGAAAGUCACACAAACCGG

Variants of B1 are the subject of this data set. The data set can be described thus: reverse-splicing fitness (ratio to wild type); higher = more active; in vitro selection; Mg2+ level not given. In a few lines: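 An in vitro group I ribozyme library with randomized positions was T7-transcribed and gel-purified. In triplicate, 10 pmol RNA in EPPS pH 7.5 was reacted with 50 pmoles of a 30-nt RNA substrate for 1 h at 37 °C across several added MgCl2 levels (1–48 mM), then stopped with EDTA. Products were reverse transcribed from a substrate-complementary primer, PCR-amplified and sequenced (HiSeq 4000). Fitness is a variant's read proportion after selection over that before, normalised to wild type.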
As for C82A A111G A145U C169U U176A, the reverse-splicing fitness was determined as 0.0124.
Next, C82A A111G A145U C169U U176G: 0.0055; C82A A111G A145U C169U U176C: 0.0133.
With C82A A111U A120C C150U U176G, the reverse-splicing fitness came out at 0.00805.
On to C82A A111U A120C C150U U176A, for which the reverse-splicing fitness turned out to be 0.0125.
Take C82A A111U A120C C150U U176C: the reverse-splicing fitness stood at 0.022.
In the case of C82A A111G C150A C169A it was 0.0109.
Next, C82A A111G C150A C169G: 0.00926; C82A A111G C150A C169U: 0.0114.
For the variant C82A A111U A120C A145G C150U C169U U176G, the reverse-splicing fitness turned out to be 0.00781.
As to C82A A111U A120C A145G C150U C169U U176A, the reverse-splicing fitness is 0.0152.
On to C82A A111U A120C A145G C150U C169U U176C, for which the reverse-splicing fitness was found to be 0.0148.
For the variant C82A A111U A120C A145G C150A U176C, the reverse-splicing fitness came out at 0.0241.
As to C82A A111U A120C A145G C150A U176G, the reverse-splicing fitness worked out at 0.00997.
Take C82A A111U A120C A145G C150A U176A: the reverse-splicing fitness came out at 0.0105.
As to C82A A111U A120C A145G C150U, the reverse-splicing fitness is 0.0255.
Next, C82A A111U A120C A145G C150A: 0.013; C82A A111U A120C A145G C150G: 0.0101.
On to C82A A111G C150G C169A U176A, for which the reverse-splicing fitness is 0.0113.
Consider C82A A111G C150G C169A U176C, for which the reverse-splicing fitness worked out at 0.0122.
For the variant C82A A111G C150G C169A U176G, the reverse-splicing fitness came out at 0.00753.
Regarding C82A A111U A120C A145G C150G U176A, the reverse-splicing fitness is 0.00848.
C82A A111U A120C A145G C150G U176C: the reverse-splicing fitness came to 0.0126.
Turning to C82A A111U A120C A145G C150G U176G, the reverse-splicing fitness was 0.00733.
Take C82A A111U A120C A145C C150G C169A U176A: the reverse-splicing fitness is 0.00999.
Consider C82A A111U A120C A145C C150G C169A U176C, for which the reverse-splicing fitness is 0.011.
In the case of C82A A111U A120C A145C C150G C169A U176G it was 0.0073; in that of C82A A111U A120C A145C C169G U176G, 0.00816; in that of C82A A111U A120C A145C C169G U176A, 0.0334.
In the case of C82A A111U A120C A145C C169G U176C it was 0.0325.
Regarding C82A A111U A120C A145C C169A, the reverse-splicing fitness turned out to be 0.0103.
For the variant C82A A111U A120C A145C C169G, the reverse-splicing fitness came to 0.01.
Turning to C82A A111U A120C A145C C169U, the reverse-splicing fitness came to 0.0112.
For the variant C82A A111U A120C A145U C150A C169A U176A, the reverse-splicing fitness worked out at 0.0231.
For C82A A111U A120C A145U C150A C169A U176C, the reverse-splicing fitness came out at 0.0189.
With C82A A111U A120C A145U C150A C169A U176G, the reverse-splicing fitness is 0.00919.
As to C82A A111G C150U C169U, the reverse-splicing fitness was 0.0122.
As for C82A A111G C150U C169G, the reverse-splicing fitness amounted to 0.00992.
In the case of C82A A111G C150U C169A, the reverse-splicing fitness stood at 0.011.
C82A A111U A120C A145G C169A U176C: the reverse-splicing fitness is 0.0332.
For the variant C82A A111U A120C A145G C169A U176A, the reverse-splicing fitness was found to be 0.0312.
In the case of C82A A111U A120C A145G C169A U176G it was 0.00699.
Take C82A A111G C150U C169A U176G: the reverse-splicing fitness is 0.00716.
On to C82A A111G C150U C169A U176C, for which the reverse-splicing fitness was 0.0164.
Take C82A A111G C150U C169A U176A: the reverse-splicing fitness turned out to be 0.0185.
On to C82A A111U A120C A145G C150A C169U U176A, for which the reverse-splicing fitness turned out to be 0.019.
For C82A A111U A120C A145G C150A C169U U176C, the reverse-splicing fitness stood at 0.0176.
For the variant C82A A111U A120C A145G C150A C169U U176G, the reverse-splicing fitness came out at 0.00879.
In the case of C82A A111U A120C A145C C150U C169G, the reverse-splicing fitness came to 0.00912.
In the case of C82A A111U A120C A145C C150U C169U it was 0.0105.
For C82A A111U A120C A145C C150U C169A, the reverse-splicing fitness worked out at 0.00907.
On to C82A A111U A120C A145U C150A U176C, for which the reverse-splicing fitness is 0.0223.
Take C82A A111U A120C A145U C150A U176A: the reverse-splicing fitness is 0.0108.
For the variant C82A A111U A120C A145U C150A U176G, the reverse-splicing fitness amounted to 0.00762.
In the case of C82A A111G U176A, the reverse-splicing fitness is 0.189.
Turning to C82A A111G U176G, the reverse-splicing fitness was determined as 0.0537.
Take C82A A111G U176C: the reverse-splicing fitness was 0.262.
Next, C82A A111U A120C A145C C169U U176G: 0.00416.
As to C82A A111U A120C A145C C169U U176C, the reverse-splicing fitness amounted to 0.0149.
Turning to C82A A111U A120C A145C C169U U176A, the reverse-splicing fitness came out at 0.0168.
With C82A A111U A120C C150G C169A U176G, the reverse-splicing fitness amounted to 0.00717.
As for C82A A111U A120C C150G C169A U176A, the reverse-splicing fitness is 0.0125.
Next, C82A A111U A120C C150G C169A U176C: 0.0122.
For the variant C82A A111U A120C A145G C150U C169G, the reverse-splicing fitness worked out at 0.00957.
C82A A111U A120C A145G C150U C169A: the reverse-splicing fitness worked out at 0.0113.
Regarding C82A A111U A120C A145G C150U C169U, the reverse-splicing fitness was 0.0127.
In the case of C82A A111U A120C C150A C169U U176G, the reverse-splicing fitness amounted to 0.00905.
In the case of C82A A111U A120C C150A C169U U176A, the reverse-splicing fitness is 0.0186.
As to C82A A111U A120C C150A C169U U176C, the reverse-splicing fitness worked out at 0.0167.
Regarding C82A A111U A120C A145G C169U U176A, the reverse-splicing fitness was 0.0178.
For the variant C82A A111U A120C A145G C169U U176C, the reverse-splicing fitness stood at 0.0156.
Turning to C82A A111U A120C A145G C169U U176G, the reverse-splicing fitness amounted to 0.00584.
Consider C82A A111G A145U C169G U176A, for which the reverse-splicing fitness is 0.011.
On to C82A A111G A145U C169G U176G, for which the reverse-splicing fitness was determined as 0.00511.
Next, C82A A111G A145U C169G U176C: 0.0131.
In the case of C82A A111G C150U C169U U176G, the reverse-splicing fitness was found to be 0.00623.
Next, C82A A111G C150U C169U U176A: 0.0148; C82A A111G C150U C169U U176C: 0.0136.
Consider C82A A111G A145U U176A, for which the reverse-splicing fitness was determined as 0.179.
For the variant C82A A111G A145U U176C, the reverse-splicing fitness was found to be 0.249.
C82A A111G A145U U176G: the reverse-splicing fitness worked out at 0.0692.
C82A A111U A120C A145U C150U C169A: the reverse-splicing fitness was 0.0111.
As to C82A A111U A120C A145U C150U C169U, the reverse-splicing fitness was found to be 0.0116.
For C82A A111U A120C A145U C150U C169G, the reverse-splicing fitness is 0.00959.

The record behind these values is the RNAGym collection of RNA variant scans (doi:10.1093/molbev/msab373).
